± gives the uncertainty stated by the source.

35 variants from the Human Domainome abundance scans (Beltran et al. 2025) can be followed below.

B1: GA-binding protein alpha chain, residues 172 to 250; numbered along this chain, Q06546 (parent)
chain: GYRKEQERLGIPYDPIQWSTDQVLHWVVWVMKEFSMTDIDLTTLNISGRELCSLNQEDFFQRVPRGEILWSHLELLRKY

The data set covers variants of B1. Nature of the data set: abundance fitness (aPCA) (normalised: wild type 0, dead -1); higher = more abundant; growth selection in yeast, the domain comes from the species named. The note with it: Homo sapiens.
GYRKEQERLGIPYDPIQWSTDQVLHWVVWVMKNFSMTDIDLTTLNISGRELCSLNQEDFFQRVPRGEILWSHLELLRKY [E33N]: the abundance fitness was -0.202 ± 0.25.
Turning to GYRKEQERLGIPYDPIQWSTDQVLHWVVWVMKIFSMTDIDLTTLNISGRELCSLNQEDFFQRVPRGEILWSHLELLRKY [E33I], the abundance fitness was -0.767 ± 0.29.
With GYRKEQERLGIPYDPIQWSTDQVLHWVVWVMKWFSMTDIDLTTLNISGRELCSLNQEDFFQRVPRGEILWSHLELLRKY [E33W], the abundance fitness is -0.566 ± 0.089.
Regarding GYRKEQERLGIPYDPIQWSTDQVLHWVVWVMKRFSMTDIDLTTLNISGRELCSLNQEDFFQRVPRGEILWSHLELLRKY [E33R], the abundance fitness is -0.031 ± 0.036.
Regarding GYRKEQERLGIPYDPIQWSTDQVLHWVVWVMKDFSMTDIDLTTLNISGRELCSLNQEDFFQRVPRGEILWSHLELLRKY [E33D], the abundance fitness amounted to 0.021 ± 0.077.
As to GYRKEQERLGIPYDPIQWSTDQVLHWVVWCMKEFSMTDIDLTTLNISGRELCSLNQEDFFQRVPRGEILWSHLELLRKY [V30C], the abundance fitness turned out to be 0.012 ± 0.14.
Consider GYRKEQERLGIPYDPIQWSTDQVLHWVVWIMKEFSMTDIDLTTLNISGRELCSLNQEDFFQRVPRGEILWSHLELLRKY [V30I], for which the abundance fitness was -0.099 ± 0.086.
For GYRKEQERLGIPYDPIQWSTDQVLHWVVWWMKEFSMTDIDLTTLNISGRELCSLNQEDFFQRVPRGEILWSHLELLRKY [V30W], the abundance fitness was -0.339 ± 0.052.
Regarding GYRKEQERLGIPYDPIQWSTDQVLHWVVWQMKEFSMTDIDLTTLNISGRELCSLNQEDFFQRVPRGEILWSHLELLRKY [V30Q], the abundance fitness is -0.345 ± 0.054.
For the variant GYRKEQERLGIPYDPIQWSTDQVLHWVVWPMKEFSMTDIDLTTLNISGRELCSLNQEDFFQRVPRGEILWSHLELLRKY [V30P], the abundance fitness is -0.822 ± 0.12.
For the variant GYRKEQERLGIPYDPIQWSTDQVLHWVVWLMKEFSMTDIDLTTLNISGRELCSLNQEDFFQRVPRGEILWSHLELLRKY [V30L], the abundance fitness is -0.12 ± 0.034.
For the variant GYRKEQERLGIPYDPIQWSTDQVLHWVVWHMKEFSMTDIDLTTLNISGRELCSLNQEDFFQRVPRGEILWSHLELLRKY [V30H], the abundance fitness is -0.134 ± 0.068.
As to GYRKEQERLGIPYDPIQWSTDQVLHWVVWDMKEFSMTDIDLTTLNISGRELCSLNQEDFFQRVPRGEILWSHLELLRKY [V30D], the abundance fitness was -0.763 ± 0.13.
For the variant GYRKEQERLGIPYDPIQWSTDQVLHWVVWSMKEFSMTDIDLTTLNISGRELCSLNQEDFFQRVPRGEILWSHLELLRKY [V30S], the abundance fitness is -0.076 ± 0.041.
For GYRKEQERLGIPYDPIQWSTDQVLHWVVWGMKEFSMTDIDLTTLNISGRELCSLNQEDFFQRVPRGEILWSHLELLRKY [V30G], the abundance fitness was -0.051 ± 0.038.
For GYRKEQERLGIPYDPIQWSTDQVLHWVVWEMKEFSMTDIDLTTLNISGRELCSLNQEDFFQRVPRGEILWSHLELLRKY [V30E], the abundance fitness was -0.08 ± 0.062.
For GYRKEQERLGIPYDPIQWSTDQVLHWVVWMMKEFSMTDIDLTTLNISGRELCSLNQEDFFQRVPRGEILWSHLELLRKY [V30M], the abundance fitness was -0.042 ± 0.058.
For GYRKEQERLGIPYDPIQWSTDQVLHWVVWTMKEFSMTDIDLTTLNISGRELCSLNQEDFFQRVPRGEILWSHLELLRKY [V30T], the abundance fitness was 0.003 ± 0.071.
As for GYRKEQERLGIPYDPIQWSTDQVLHWVVWYMKEFSMTDIDLTTLNISGRELCSLNQEDFFQRVPRGEILWSHLELLRKY [V30Y], the figure is -0.492 ± 0.096.
The value for GYRKEQERLGIPYDPIQWSTDQVLHWVVWVMAEFSMTDIDLTTLNISGRELCSLNQEDFFQRVPRGEILWSHLELLRKY [K32A] was -0.141 ± 0.044; that for GYRKEQERLGIPYDPIQWSTDQVLHWVVWVMQEFSMTDIDLTTLNISGRELCSLNQEDFFQRVPRGEILWSHLELLRKY [K32Q] was -0.061 ± 0.067.
With GYRKEQERLGIPYDPIQWSTDQVLHWVVWVMVEFSMTDIDLTTLNISGRELCSLNQEDFFQRVPRGEILWSHLELLRKY [K32V], the abundance fitness was -0.36 ± 0.044.
Consider GYRKEQERLGIPYDPIQWSTDQVLHWVVWVMWEFSMTDIDLTTLNISGRELCSLNQEDFFQRVPRGEILWSHLELLRKY [K32W], for which the abundance fitness was -0.419 ± 0.039.
The value for GYRKEQERLGIPYDPIQWSTDQVLHWVVWVMTEFSMTDIDLTTLNISGRELCSLNQEDFFQRVPRGEILWSHLELLRKY [K32T] was -0.01 ± 0.059; that for GYRKEQERLGIPYDPIQWSTDQVLHWVVWVMFEFSMTDIDLTTLNISGRELCSLNQEDFFQRVPRGEILWSHLELLRKY [K32F] was -0.41 ± 0.085; that for GYRKEQERLGIPYDPIQWSTDQVLHWVVWVMREFSMTDIDLTTLNISGRELCSLNQEDFFQRVPRGEILWSHLELLRKY [K32R] was -0.024 ± 0.041.
On to GYRKEQERLGIPYDPIQWSTDQVLHWVVWVMPEFSMTDIDLTTLNISGRELCSLNQEDFFQRVPRGEILWSHLELLRKY [K32P], for which the abundance fitness is -0.734 ± 0.09.
GYRKEQERLGIPYDPIQWSTDQVLHWVVWVMLEFSMTDIDLTTLNISGRELCSLNQEDFFQRVPRGEILWSHLELLRKY [K32L]: the abundance fitness was -0.443 ± 0.052.
On to GYRKEQERLGIPYDPIQWSTDQVLHWVVWVMSEFSMTDIDLTTLNISGRELCSLNQEDFFQRVPRGEILWSHLELLRKY [K32S], for which the abundance fitness is -0.079 ± 0.046.
GYRKEQERLGIPYDPIQWSTDQVLHWVVWVMCEFSMTDIDLTTLNISGRELCSLNQEDFFQRVPRGEILWSHLELLRKY [K32C]: the abundance fitness is -0.188 ± 0.077.
Consider GYRKEQERLGIPYDPIQWSTDQVLHWVVWVMYEFSMTDIDLTTLNISGRELCSLNQEDFFQRVPRGEILWSHLELLRKY [K32Y], for which the abundance fitness was -0.172 ± 0.082.
Take GYRKEQERLGIPYDPIQWSTDQVLHWVVWVMMEFSMTDIDLTTLNISGRELCSLNQEDFFQRVPRGEILWSHLELLRKY [K32M]: the abundance fitness is -0.261 ± 0.059.
The value for GYRKEQERLGIPYDPIQWSTDQVLHWVVWVMEEFSMTDIDLTTLNISGRELCSLNQEDFFQRVPRGEILWSHLELLRKY [K32E] was -0.024 ± 0.053; that for GYRKEQERLGIPYDPIQWSTDQVLHWVVWVMIEFSMTDIDLTTLNISGRELCSLNQEDFFQRVPRGEILWSHLELLRKY [K32I] was -0.582 ± 0.13; that for GYRKEQERLGIPYDPIQWSTDQVLHWVVWVMNEFSMTDIDLTTLNISGRELCSLNQEDFFQRVPRGEILWSHLELLRKY [K32N] was -0.024 ± 0.14.
